For assay [1], the target named is T1, human ROR1 (hROR1) expressed on cells (human, UniProt Q01973 30-937). Briefly: cell-based or functional assay.
In assay [2] the target is T2, human ROR1-ECD (human, UniProt Q01973 30-406).
T2 construct: Bought protein; also called hROR1; ROR1-extracellular domain
Briefly: SPR (Biacore), antibody captured by anti-Fc, human ROR1-ECD analyte. The procedure: Anti-Fc polyclonal antibodies were immobilized onto a CMS chip (GE Life Sciences) using amine coupling chemistry (from Amine Coupling Kit, GE Life Sciences). The immobilization steps were carried out at a flow rate of 25 μL/min in 1×HBS-EP+buffer (GE Life Sciences; 10× Stock diluted before use). The sensor surfaces were activated for 7 min with a mixture of NHS (0.05 M) and EDC (0.2 M). The Anti-Fc antibodies were injected over all 4 flow cells at a concentration of 25 ug/ml in 10 mM sodium acetate, pH 4.5, for 7 min. Ethanolamine (1 M, pH 8.5) was injected for 7 min to block any remaining activated groups.
Off-rate and kinetic binding experiments were performed at 25° C. using 1×HBS-EP+buffer. Test and control antibodies were injected over the anti-Fc surface at concentrations of 5-10 μg/mL for 12 seconds at a flow rate of 10 μL/min on flow cells 2, 3 and 4, followed by a buffer wash for 30 seconds at the same flow rate. […] After capturing ligand (antibody) on the anti-Fc surface, the analyte (hROR1, Fz or Kr domains, Acro Biosystems, Delaware) was bound for 180 seconds, followed by a 600 second dissociation phase at a flow rate of 50 μL/min. Between each ligand capture and analyte binding cycle, regeneration was carried out using 2 injections of 10 mM Glycine pH 2.0 for 30 seconds at 30 μL/min, followed by a 30 second buffer wash step.

The target of assay [3] is T1, human ROR1 (hROR1) expressed on cells. Briefly: flow cytometry, HCT116-hROR1 cells. On the technique in general: Flow cytometry measures light scatter and fluorescence of single cells or particles in a stream.

This note sets out measurements from patent publication US20240058465A1 (SUTRO BIOPHARMA, published 2024).

B1: SRP2188-B07 (antibody, IgG1, V domains shown)
VH: EVQLVESGGGLVQPGGSLRLSCAASGFNIHSHDIHWVRQAPGKGLEWVGWINPDDGDTYYADSVKGRFAISADTSKNTAYLQMNSLRAEDTAVYYCARDYGVFDYWGRGTLVTVSS
VL: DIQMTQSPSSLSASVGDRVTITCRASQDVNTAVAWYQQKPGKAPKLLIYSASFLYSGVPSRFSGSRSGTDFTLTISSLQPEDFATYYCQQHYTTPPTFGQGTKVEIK
notes: IgG1 with trastuzumab LC; HIS- and FLAG-tagged; cell-free expressed
On to B1, for which, in assay [1], the “Mino Nb-PBD, drug-conjugated 2° antibody Cell Killing IC50” value was determined as 0.0014 nM and the “Mino Nb-PBD, drug-conjugated 2° antibody Cell Killing Span” value amounted to 72%. In assay [2], this molecule yielded an equilibrium dissociation constant (Kd) of 0.221 nM, a koff of 0.000194 s⁻¹ and an association rate constant (kon) of 880000 M⁻¹ s⁻¹. In assay [3], the “Bmax (MFI)” value was found to be 8760 MFI and binding was characterised by a dissociation constant (Kd) of 0.07 nM.

B2: SRP2188-F06 (antibody, IgG1, V domains shown)
VH: EVQLVESGGGLVQPGGSLRLSCAASGFNILDYDIHWVRQAPGKGLEWVGGIDPDDGATDYADSVKGRFTISADTSKNTAYLQMNSLRAEDTAVYYCARDYGVFDYWGQGTLVTVSS
VL: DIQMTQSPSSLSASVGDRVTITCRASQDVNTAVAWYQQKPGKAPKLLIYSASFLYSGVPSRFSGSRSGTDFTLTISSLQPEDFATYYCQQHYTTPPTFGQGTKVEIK
notes: as for B1
Take B2: in assay [1], the “Mino Nb-PBD, drug-conjugated 2° antibody Cell Killing IC50” value was determined as 0.00055 nM and the “Mino Nb-PBD, drug-conjugated 2° antibody Cell Killing Span” value was found to be 75%. Besides, in assay [2], the Kd was 0.384 nM, the off-rate constant (koff) was found to be 0.000357 s⁻¹ and the on-rate (kon) amounted to 931000 M⁻¹ s⁻¹. Besides, in assay [3], the “Bmax (MFI)” value was found to be 10200 MFI and the affinity, expressed as Kd, was 0.03 nM.

B3: SRP2188-C09 (antibody, IgG1, V domains shown)
VH: EVQLVESGGGLVQPGGSLRLSCAASGFNINSYDIHWVRQAPGKGLEWVGWINPHDGDTYYADSVTGRFTISADTSKNTAYLQMNSLRAEDTAVYYCARDYGVFDYWGQGTLVTVSS
VL: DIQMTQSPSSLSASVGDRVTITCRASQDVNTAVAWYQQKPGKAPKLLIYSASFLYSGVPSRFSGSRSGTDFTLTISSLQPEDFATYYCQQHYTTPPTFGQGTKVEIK
notes: as for B1
In the case of B3, in assay [1], the “Mino Nb-PBD, drug-conjugated 2° antibody Cell Killing IC50” value came to 0.00091 nM and the “Mino Nb-PBD, drug-conjugated 2° antibody Cell Killing Span” value was determined as 71%. In assay [2], this molecule returned an equilibrium dissociation constant (Kd) of 0.504 nM, a dissociation rate constant (koff) of 0.00042 s⁻¹ and an on-rate constant (kon) of 833000 M⁻¹ s⁻¹. In addition, in assay [3], the “Bmax (MFI)” value was found to be 9080 MFI and the equilibrium dissociation constant (Kd) is 0.03 nM.

B4: SRP2188-E01 (antibody, IgG1, V domains shown)
VH: EVQLVESGGGLVQPGGSLRLSCAASGFNIGDYDIHWVRQAPGKGLEWVVGIDPQDGATDYADSVKGRFTISADTSKNTAYLQMNSLRAEDTAVYYCARDYGVFDYWGQGTLVTVSS
VL: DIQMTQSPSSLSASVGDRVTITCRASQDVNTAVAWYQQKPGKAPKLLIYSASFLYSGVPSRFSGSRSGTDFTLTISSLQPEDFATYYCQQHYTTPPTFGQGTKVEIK
notes: as for B1
On to B4, for which, in assay [1], the “Mino Nb-PBD, drug-conjugated 2° antibody Cell Killing IC50” value was 0.0015 nM and the “Mino Nb-PBD, drug-conjugated 2° antibody Cell Killing Span” value was 69%. Further, in assay [2], the equilibrium dissociation constant (Kd) was 0.827 nM, the koff was determined as 0.000387 s⁻¹ and the kon came out at 468000 M⁻¹ s⁻¹. For the same molecule, in assay [3], the “Bmax (MFI)” value stood at 9370 MFI and the affinity, expressed as Kd, was 0.06 nM.

B5: SRP2188-G03 (antibody, IgG1, V domains shown)
VH: EVQLVESGGGLVQPGGSLRLSCAASGFNIVDYDIHWVRQAPGKGLEWVVGIDPRDGSTDYADSVKGRFTISADTSKNTAYLQMNSLRAEDTAVYYCARDFGVFDYWGQGTLVTVSS
VL: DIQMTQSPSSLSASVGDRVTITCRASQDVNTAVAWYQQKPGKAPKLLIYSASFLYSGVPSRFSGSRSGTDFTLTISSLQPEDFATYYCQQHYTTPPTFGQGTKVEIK
notes: as for B1
For B5, in assay [1], the “Mino Nb-PBD, drug-conjugated 2° antibody Cell Killing IC50” value came to 0.00097 nM and the “Mino Nb-PBD, drug-conjugated 2° antibody Cell Killing Span” value is 70%. In assay [2], this molecule had a Kd of 0.373 nM, an off-rate (koff) of 0.000316 s⁻¹ and a kon of 846000 M⁻¹ s⁻¹. In assay [3], the “Bmax (MFI)” value was 8960 MFI and the equilibrium dissociation constant (Kd) was found to be 0.03 nM.

B6: SRP2188-F11 (antibody, IgG1, V domains shown)
VH: EVQLVESGGGLVQPGGSLRLSCAASGFNITGYDIHWVRQAPGKGLEWVGGIDPEDGATDYADSVKGRFTISADTSKNTAYLQMNSLRAEDTAVYYCARDYGVFDYWGQGTLVTVSS
VL: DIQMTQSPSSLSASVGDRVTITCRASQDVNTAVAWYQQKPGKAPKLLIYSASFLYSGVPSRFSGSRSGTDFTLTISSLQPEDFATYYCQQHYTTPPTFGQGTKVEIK
notes: as for B1
Turning to B6, in assay [1], the “Mino Nb-PBD, drug-conjugated 2° antibody Cell Killing IC50” value amounted to 0.00099 nM and the “Mino Nb-PBD, drug-conjugated 2° antibody Cell Killing Span” value stood at 68%. Besides, in assay [2], binding was characterised by a dissociation constant (Kd) of 0.313 nM, the off-rate constant (koff) worked out at 0.000249 s⁻¹ and the on-rate constant (kon) came out at 794000 M⁻¹ s⁻¹. In assay [3], the “Bmax (MFI)” value stood at 9480 MFI and the Kd came to 0.03 nM.

B7: SRP2188-F08 (antibody, IgG1, V domains shown)
VH: EVQLVESGGGLVQPGGSLRLSCAASGFNIPDFEIHWVRQAPGKGLEWVARIEPDDGATDYADSVKGRFTISADTSKNTAYLQMNSLRAEDTAVYYCARDYGVFDYWGQGTLVTVSS
VL: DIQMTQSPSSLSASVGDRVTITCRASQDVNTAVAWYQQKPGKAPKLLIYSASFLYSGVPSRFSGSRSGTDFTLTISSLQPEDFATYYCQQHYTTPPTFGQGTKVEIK
notes: as for B1
Take B7: in assay [1], the “Mino Nb-PBD, drug-conjugated 2° antibody Cell Killing IC50” value stood at 0.00071 nM and the “Mino Nb-PBD, drug-conjugated 2° antibody Cell Killing Span” value was determined as 75%. In addition, in assay [2], the Kd turned out to be 0.428 nM, the dissociation rate constant (koff) is 0.000422 s⁻¹ and the on-rate (kon) stood at 987000 M⁻¹ s⁻¹. In assay [3], the “Bmax (MFI)” value is 9030 MFI and binding was characterised by a dissociation constant (Kd) of 0.02 nM.

B8: SRP2188-D06 (antibody, IgG1, V domains shown)
VH: EVQLVESGGGLVQPGGSLRLSCAASGFNIRDYDIHWVRQAPGKGLEWVGGIDPNDGATDYADSVKGRFTISADTSKNTAYLQMNSLRAEDTAVYYCARDYGVFDYWGQGTLVTVSS
VL: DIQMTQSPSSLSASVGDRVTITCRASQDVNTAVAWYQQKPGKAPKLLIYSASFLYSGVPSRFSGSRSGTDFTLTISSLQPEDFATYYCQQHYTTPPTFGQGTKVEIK
notes: as for B1
On to B8, for which, in assay [1], the “Mino Nb-PBD, drug-conjugated 2° antibody Cell Killing IC50” value was determined as 0.0015 nM and the “Mino Nb-PBD, drug-conjugated 2° antibody Cell Killing Span” value is 69%. For the same molecule, in assay [2], the dissociation constant (Kd) is 0.628 nM, the off-rate constant (koff) came to 0.000563 s⁻¹ and the kon was determined as 897000 M⁻¹ s⁻¹. Moreover, in assay [3], the “Bmax (MFI)” value stood at 9810 MFI and the Kd is 0.04 nM.

B9: SRP2188-D04 (antibody, IgG1, V domains shown)
VH: EVQLVESGGGLVQPGGSLRLSCAASGFNISDYDIHWVRQAPGKGLEWVGGIDPADGSTDYADSVKGRFTISADTSKNTAYLQMNSLRAEDTAVYYCARDYGVYDYWGQGTLVTVSS
VL: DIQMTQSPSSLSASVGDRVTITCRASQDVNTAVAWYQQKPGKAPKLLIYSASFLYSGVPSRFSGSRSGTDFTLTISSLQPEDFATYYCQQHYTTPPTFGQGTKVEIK
notes: IgG1 with trastuzumab LC; HIS- and FLAG-tagged; cell-free expressed in the screen; also called mAb 42
Take B9: in assay [1], the “Mino Nb-PBD, drug-conjugated 2° antibody Cell Killing IC50” value was determined as 0.0014 nM and the “Mino Nb-PBD, drug-conjugated 2° antibody Cell Killing Span” value is 69%. In assay [2], this molecule gave a dissociation constant Kd of 0.426 nM, a koff of 0.000423 s⁻¹ and a kon of 994000 M⁻¹ s⁻¹. In assay [3], the “Bmax (MFI)” value is 9690 MFI and binding was put at a Kd of 0.04 nM.

B10: SRP2188-D09 (antibody, IgG1, V domains shown)
VH: EVQLVESGGGLVQPGGSLRLSCAASGFNIRDYDIHWVRQAPGKGLEWVVGIDPGDGSTDYADSVKGRFTISADTSKNTAYLQMNSLRAEDTAVYYCARDFGVFDYWGQGTLVTVSS
VL: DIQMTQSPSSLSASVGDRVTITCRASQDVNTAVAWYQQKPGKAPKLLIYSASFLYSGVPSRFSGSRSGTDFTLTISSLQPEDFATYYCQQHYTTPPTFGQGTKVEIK
notes: as for B1
Regarding B10, in assay [1], the “Mino Nb-PBD, drug-conjugated 2° antibody Cell Killing IC50” value turned out to be 0.0013 nM and the “Mino Nb-PBD, drug-conjugated 2° antibody Cell Killing Span” value came to 70%. Also, in assay [2], the Kd was 0.366 nM, the off-rate (koff) was 0.00028 s⁻¹ and the on-rate constant (kon) came out at 766000 M⁻¹ s⁻¹. Also, in assay [3], the “Bmax (MFI)” value was determined as 8970 MFI and the Kd is 0.06 nM.

B11: SRP2188-D03 (antibody, IgG1, V domains shown)
VH: EVQLVESGGGLVQPGGSLRLSCAASGFNISDYDIHWVRQAPGKGLEWVGGIDPHDGSTDYADSVKGRFTISADTSKNTAYLQMNSLRAEDTAVYYCARDYGVYDYWGQGTLVTVSS
VL: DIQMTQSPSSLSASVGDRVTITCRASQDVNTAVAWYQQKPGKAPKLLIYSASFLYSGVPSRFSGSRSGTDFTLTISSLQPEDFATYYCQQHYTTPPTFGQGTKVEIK
notes: as for B1
Regarding B11, in assay [1], the “Mino Nb-PBD, drug-conjugated 2° antibody Cell Killing IC50” value was found to be 0.00089 nM and the “Mino Nb-PBD, drug-conjugated 2° antibody Cell Killing Span” value was determined as 72%. In assay [2], this molecule showed an equilibrium dissociation constant (Kd) of 0.838 nM, a koff of 0.00055 s⁻¹ and an on-rate (kon) of 656000 M⁻¹ s⁻¹. Moreover, in assay [3], the “Bmax (MFI)” value worked out at 9110 MFI and binding was characterised by a dissociation constant (Kd) of 0.04 nM.

B12: SRP2188-E04 (antibody, IgG1, V domains shown)
VH: EVQLVESGGGLVQPGGSLRLSCAASGFNISDYDIHWVRQAPGKGLEWVAGIDPQDGSTDYADSVKGRFTISADTSKNTAYLQMNSLRAEDAAVYYCARDFGVFDYWGQGTLVTVSS
VL: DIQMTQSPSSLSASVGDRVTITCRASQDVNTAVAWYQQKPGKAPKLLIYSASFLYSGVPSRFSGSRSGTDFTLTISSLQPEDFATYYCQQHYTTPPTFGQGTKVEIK
notes: as for B1
As to B12, in assay [1], the “Mino Nb-PBD, drug-conjugated 2° antibody Cell Killing IC50” value worked out at 0.00087 nM and the “Mino Nb-PBD, drug-conjugated 2° antibody Cell Killing Span” value was 66%. Further, in assay [2], the equilibrium dissociation constant (Kd) turned out to be 0.604 nM, the off-rate constant (koff) is 0.000468 s⁻¹ and the kon was determined as 775000 M⁻¹ s⁻¹. In addition, in assay [3], the “Bmax (MFI)” value amounted to 9860 MFI and the affinity, expressed as Kd, was 0.03 nM.

B13: SRP2188-G02 (antibody, IgG1, V domains shown)
VH: EVQLVESGGGLVQPGGSLRLSCAASGFNIVGYDIHWVRQAPSKGLEWVGGIDPNDGATDYADSVKGRFTISADTSKNTAYLQMNSLRAEDTAVYYCARDYGVFDYWGQGTLVTVSS
VL: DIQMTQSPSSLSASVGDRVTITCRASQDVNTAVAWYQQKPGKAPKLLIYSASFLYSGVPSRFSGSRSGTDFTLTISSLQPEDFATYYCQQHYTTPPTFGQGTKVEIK
notes: as for B1
As for B13, in assay [1], the “Mino Nb-PBD, drug-conjugated 2° antibody Cell Killing IC50” value turned out to be 0.00047 nM and the “Mino Nb-PBD, drug-conjugated 2° antibody Cell Killing Span” value came to 74%. Besides, in assay [2], binding was characterised by a dissociation constant (Kd) of 0.49 nM, the dissociation rate constant (koff) is 0.000443 s⁻¹ and the kon amounted to 905000 M⁻¹ s⁻¹. Also, in assay [3], the “Bmax (MFI)” value came to 8920 MFI and binding was characterised by a dissociation constant (Kd) of 0.02 nM.

B14: SRP2188-E03 (antibody, IgG1, V domains shown)
VH: EVQLVESGGGLVQPGGSLRLSCAASGFNIRDYDIHWVRQAPGKGLEWVAGIDPDDGSTDYADSVKGRFTISADTSKNTAYLQMNSLRAEDTAVYYCARDYGVYDYWGQGTLVTVSS
VL: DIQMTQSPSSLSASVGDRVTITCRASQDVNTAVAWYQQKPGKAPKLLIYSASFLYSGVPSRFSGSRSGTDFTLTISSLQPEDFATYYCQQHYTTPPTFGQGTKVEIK
notes: as for B1
Consider B14, for which, in assay [1], the “Mino Nb-PBD, drug-conjugated 2° antibody Cell Killing IC50” value was determined as 0.0013 nM and the “Mino Nb-PBD, drug-conjugated 2° antibody Cell Killing Span” value amounted to 65%. Also, in assay [2], the dissociation constant Kd worked out at 0.464 nM, the off-rate constant (koff) stood at 0.000333 s⁻¹ and the on-rate constant (kon) came to 718000 M⁻¹ s⁻¹. Moreover, in assay [3], the “Bmax (MFI)” value was determined as 10300 MFI and the affinity, expressed as Kd, was 0.02 nM.

In general, Kd refers to the free concentration of one partner at which half of the binding sites on the other are occupied at equilibrium, for simple one-to-one binding. The koff is a measure of how fast the partners let go of each other. Read a high koff as a short-lived complex. Broadly, the kon is the rate constant with which the complex forms. Lower therefore signals slow association.
